Measured values from US20240209100A1 (DIAGONAL THERAPEUTICS, published 2024).

T1: IL-18 receptor (IL-18Rα/IL-18Rβ) overexpressed on HEK-Blue IL-18 cells (Homo sapiens (Human), UniProt Q13478 19-541; O95256 20-599)
T1 sequence 1: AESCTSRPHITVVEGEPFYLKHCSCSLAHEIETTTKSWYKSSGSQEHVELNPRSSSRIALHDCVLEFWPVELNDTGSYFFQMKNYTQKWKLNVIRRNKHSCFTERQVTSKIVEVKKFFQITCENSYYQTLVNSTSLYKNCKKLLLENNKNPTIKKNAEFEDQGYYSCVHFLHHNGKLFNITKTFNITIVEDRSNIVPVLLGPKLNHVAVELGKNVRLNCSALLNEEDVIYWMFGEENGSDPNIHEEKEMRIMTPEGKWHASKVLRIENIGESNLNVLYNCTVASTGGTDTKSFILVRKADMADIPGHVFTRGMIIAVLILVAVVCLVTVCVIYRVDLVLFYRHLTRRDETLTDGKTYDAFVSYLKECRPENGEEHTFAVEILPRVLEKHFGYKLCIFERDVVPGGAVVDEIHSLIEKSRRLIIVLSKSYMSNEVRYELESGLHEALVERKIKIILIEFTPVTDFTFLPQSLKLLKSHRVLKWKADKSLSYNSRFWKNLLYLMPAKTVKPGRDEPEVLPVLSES
T1 sequence 2: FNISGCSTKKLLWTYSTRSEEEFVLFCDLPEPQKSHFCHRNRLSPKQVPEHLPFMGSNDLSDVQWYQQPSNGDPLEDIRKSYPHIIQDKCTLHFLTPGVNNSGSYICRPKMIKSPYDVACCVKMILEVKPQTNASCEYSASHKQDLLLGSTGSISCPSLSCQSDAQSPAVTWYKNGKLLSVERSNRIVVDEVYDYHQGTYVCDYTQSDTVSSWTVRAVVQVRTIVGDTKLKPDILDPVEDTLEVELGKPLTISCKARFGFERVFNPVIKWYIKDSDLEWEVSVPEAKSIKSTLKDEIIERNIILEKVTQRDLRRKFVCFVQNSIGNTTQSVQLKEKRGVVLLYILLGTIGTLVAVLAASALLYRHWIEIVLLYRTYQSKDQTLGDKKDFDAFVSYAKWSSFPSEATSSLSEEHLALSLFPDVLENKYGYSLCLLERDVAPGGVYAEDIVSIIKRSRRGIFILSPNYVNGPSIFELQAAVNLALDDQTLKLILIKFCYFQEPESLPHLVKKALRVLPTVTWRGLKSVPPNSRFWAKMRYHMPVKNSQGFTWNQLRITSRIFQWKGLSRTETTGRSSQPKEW

B1: DGL309 (bispecific antibody, V domains shown)
V domain 1: QVQLQESGGGLVQPGGSARLSCVASGIIFNDYHMGWYRQAPGKQRDLVAGITAGGSTTYADSVKGRFTISRDNAKHTVYLQMNNLSPEDTAVYYCNTFYNAILDWGKGTLVTVSS
V domain 2: EVQLVESGGGVAQAGGSLRLSCAASITSFSLNTMGYYRQLPGKQRELVAVESSSGITNYADSVKGRFTISRDGAKNTVFLQMNSLTPEDTAVYYCGGKLFGRDFWGQGTQVTVSS
B2: DGL310 (bispecific antibody, V domains shown)
V domain 1: QVQLVESGGGLVQAGGSLRLSCAASGRTFSKHAMGWFRQAPGKEREFVAAIDWSGGSTYYADSVKGRFTISRDNAKNTVYLQMDSLKPEDTAVYYCAADSYTDYAQLWLPELESEYDYWGQGTQVTVSS
V domain 2: B1 V domain 2
B3: DGL311 (bispecific antibody, V domains shown)
V domain 1: QVQLVESGGGLVQAGGSLRLSCAASGRTFSSYTMGWFRQAPGKEREFVAAISWSAGRTYYADSVKGRFTISRDNAKNTVYLQMNSLKPEDTAVYFCAAEEAPDWAPIDCSGYGCLSLYDYWGQGTQVTVSS
V domain 2: B1 V domain 2
B4: DGL315 (bispecific antibody, V domains shown)
V domain 1: B1 V domain 1
V domain 2: QVQLVESGGGLVQAGGSLRLSCAASGMFFSIGEMGWYRQAPGKQREMVARITRDGRINYADSVEGRFTASRNVAKTTLFLQMNSLKPEDTANYQCTVRRWDEEYWGKGTLVTVSD
B5: DGL305 (bispecific antibody, V domains shown)
V domain 1: EVQLVESGGGLVQPGGSLRLSCAASGSIFSINAMGWYRQAPGKQREVVATSTGGGMTNYADSVKGRFTISRDNAKNTVYLQMNSLKPEDTAVYYCNADKDPFFPGDYWGQGTQVTVSS
V domain 2: QVQLQESGGGLVQPGGSLGLSCAASGIKISVNSMAWYRQAPGERREMVAVISSGGSAVYADSVKGRFTISRDNAKNMVYLQMNSLKPEDTAVYYCHPGSAAYRDYWGQGTQVTVSS
B6: DGL313 (bispecific antibody, V domains shown)
V domain 1: B5 V domain 1
V domain 2: B4 V domain 2
B7: DGL307 (bispecific antibody, V domains shown)
V domain 1: B3 V domain 1
V domain 2: B5 V domain 2
B8: DGL306 (bispecific antibody, V domains shown)
V domain 1: B2 V domain 1
V domain 2: B5 V domain 2
B9: DGL298 (bispecific antibody, V domains shown)
V domain 1: QVQLVESGGGLVQAGGSLRLSCAASGRTFSSYDMGWFRQAPGKEREFVAALRWSGGSTSYADSVKGRFTISRDNAKNTVYLHMNSLKPEDTAVYYCAATLETDSGTYWADYWGQGTQVTVSS
V domain 2: QVQLVESGGGLVLPGESLRLSCVVSGTIDNINSMGWYRQAPGKQRELVAYITKLGSANYADSVEGRFTISRDNAKKTVHLQMNSLKPEDTAVYYCHANERGRITWAQGTQVTVSS
B10: DGL303 (bispecific antibody, V domains shown)
V domain 1: QVQLQESGGGLVQPGGSLRLSCAASGFIFSNWYMRWVRQAPGEGLEWVSSINSGGDDTDYADSVKGRFTISRDNAKGTLYLQMHSLKPEDTALYYCERGADRVRGQGTQVTVSS
V domain 2: B9 V domain 2
B11: DGL301 (bispecific antibody, V domains shown)
V domain 1: B1 V domain 1
V domain 2: B9 V domain 2
B12: DGL312 (bispecific antibody, V domains shown)
V domain 1: B9 V domain 1
V domain 2: B4 V domain 2
B13: DGL308 (bispecific antibody, V domains shown)
V domain 1: B9 V domain 1
V domain 2: B1 V domain 2
B14: DGL300 (bispecific antibody, V domains shown)
V domain 1: QVQLQESGGGLVQPGGSLRLSCAASGSIFSTKGLGWYRQAPGEQRELVAGISSAGWIFYTQSVKGRFTMSRDNAKNTVYLQMNSLKPEDTAVYYCNSAQSGVPLRSWGQGTQVTVAS
V domain 2: B9 V domain 2
B15: DGL302 (bispecific antibody, V domains shown)
V domain 1: B2 V domain 1
V domain 2: B9 V domain 2
B16: DGL299 (bispecific antibody, V domains shown)
V domain 1: B5 V domain 1
V domain 2: B9 V domain 2
B17: DGL304 (bispecific antibody, V domains shown)
V domain 1: B9 V domain 1
V domain 2: B5 V domain 2
B18: DGL314 (bispecific antibody, V domains shown)
V domain 1: B14 V domain 1
V domain 2: B4 V domain 2
B19: DGL316 (bispecific antibody, V domains shown)
V domain 1: B2 V domain 1
V domain 2: B4 V domain 2
B20: DGL317 (bispecific antibody, V domains shown)
V domain 1: B10 V domain 1
V domain 2: B4 V domain 2

Biological target: T1, IL-18 receptor (IL-18Rα/IL-18Rβ) …
Assay: cell-based or functional assay

Row | HEK-Blue IL-18: Abs 405 [Abs] | HEK-Blue IL-18: Fold over Background [fold] | Binder
1 | 0.23 | 1 | B1
2 | 2.7 | 11.8 | B2
3 | 0.79 | 3.4 | B3
4 | 0.58 | 2.5 | B4
5 | 0.25 | 1.1 | B5
6 | 0.62 | 2.7 | B6
7 | 0.35 | 1.5 | B7
8 | 1.41 | 6.2 | B8
9 | 0.97 | 4.2 | B9
10 | 1.02 | 4.4 | B10
11 | 0.66 | 2.9 | B11
12 | 0.63 | 2.7 | B12
13 | 1.48 | 6.4 | B13
14 | 1.07 | 4.7 | B14
15 | 1.18 | 5.2 | B15
16 | 0.91 | 4 | B16
17 | 1.32 | 5.7 | B17
18 | 0.83 | 3.6 | B18
19 | 0.58 | 2.5 | B19
20 | 0.99 | 4.3 | B20
